T1: SN1 (short negative designed polypeptide)
T1 construct: Synthetic 32-residue polyanion built from a 7-residue motif of human complement C3, with Gly linkers and an N-terminal Tyr
T1 peptide: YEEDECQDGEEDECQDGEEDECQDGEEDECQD

T2: LN3 (long negative designed polypeptide)
T2 construct: Synthetic 48-residue polyanion; also called negative 48-residue peptide
T2 peptide: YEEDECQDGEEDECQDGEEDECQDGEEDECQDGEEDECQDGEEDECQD

T3: de novo-designed cysteine-containing negative polypeptide (SEQ ID NO: 6)
T3 peptide: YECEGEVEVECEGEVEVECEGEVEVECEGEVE

B1: SP2 (short positive designed polypeptide) (peptide)
peptide: YRRRRSVQGRRRRSVQGRRRRSVQGRRRRSVQ
notes: Synthetic 32-residue polycation built from a 7-residue motif of human lactotransferrin, with Gly linkers and an N-terminal Tyr
B2: de novo-designed cysteine-containing positive polypeptide (SEQ ID NO: 5) (peptide)
peptide: YKCKGKVKVKCKGKVKVKCKGKVKVKCKGKVK
B3: LP4 (long positive designed polypeptide) (peptide)
peptide: YRRRRSVQGRRRRSVQGRRRRSVQGRRRRSVQGRRRRSVQGRRRRSVQ
notes: Synthetic 48-residue polycation

Key:
[1] = target: T1, SN1 (short negative designed …); assay: QCM, electrostatic layer-by-layer adsorption of oppositely charged peptides, pH 7.4, 1 mM DTT (pairs named in paragraph 153)
Description: (§1) The polypeptide molecular weight was verified by electrospray mass spectrometry. Peptide purity was greater than 70%. The polypeptide buffer was 10 mM sodium phosphate or 10 mM Tris-HCl, 1 mM DTT, 0.1 mM sodium azide, pH 7.4. All chemicals other than polypeptides were purchased from Sigma-Aldrich (USA).
(§2) Resonators were rinsed for 1 min. in pure water between subsequent adsorption cycles (removing perhaps 10-15% of weakly adsorbed material) and dried in a stream of gaseous N₂. Then the mass of the deposited peptide was measured indirectly by QCM. The mass measurement includes some water, despite drying, and low mass ions like K⁺, Na⁺, and Cl⁻. Partial interpenetration of neighboring layers of peptide is probable (see Decher, G. (1997) Science 227:1232; Schmitt et al. (1993) Macromolecules 26:7058; and Korneev et al. (1995) Physica B 214:954); this could be important for the efficiency of disulfide “locking.”
(§3) After adsorption of the polypeptide and rinsing and drying the QCM resonator, the resonant frequency of the resonator was measured. This enabled calculation of the frequency shift on adsorption and change in adsorbed mass. A decrease in frequency indicates an increase in adsorbed mass. […] Each of these combinations involved one negative polypeptide and one positive polypeptide, as required by ELBL.

[2] = target: T2, LN3 (long negative designed polypeptide); assay: as above
Description: as §1, §2, §3

[3] = target: T3, de novo-designed cysteine-containing …; assay: QCM, layer-by-layer assembly, 10 mM Tris-HCl, 10 mM DTT, pH 7.4, 2 mg/mL peptide
Description: All assembly experiments using QCM were conducted in the same conditions, except that the samples to undergo oxidation were dried using air instead of nitrogen gas. The assembly conditions were 10 mM Tris-HCl, 10 mM DTT, pH 7.4. The nominal peptide concentration was 2 mg/mL. The number of layers formed was 14.

Binder	binding result [1]	binding result [2]	binding result [3]
B1	binds	binds	–
B2	–	–	binds
B3	–	binds	–
